In article PMC7323979:

Biological target: α-synuclein fibrils (preformed seeds) (human) (UniProt P37840)

bovine γB-crystallin, sequence (P02526 whole entry): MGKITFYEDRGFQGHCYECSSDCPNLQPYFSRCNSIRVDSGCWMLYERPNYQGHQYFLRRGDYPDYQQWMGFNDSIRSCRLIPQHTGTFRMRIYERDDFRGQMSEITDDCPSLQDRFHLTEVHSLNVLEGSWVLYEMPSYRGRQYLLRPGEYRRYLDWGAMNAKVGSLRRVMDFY

lowest crystallin concentration which efficiently inhibits α-syn fibril formation (ThT, 20 μM α-syn monomer, 1 μM α-syn seeds, pH 5.5, 37°C); the same value is also printed as 4.75 μM monomers: 0.1 mg/ml
Substance: bovine γB-crystallin (from UniProt P02526 1-175) (natural protein)
